Drawing on publication PMC5705597, “Molecular architecture of potassium chloride co-transporter KCC2” (Scientific Reports, 2017), this text covers Kd and stoichiometry N for three molecules.

One assay addresses T1, KCC2 (Homo sapiens, UniProt Q9H2X9).
T1 construct: gene SLC12A5; N-terminal tagged Flag-Avi-His-KCC2, residues 1–1116 of NP_065759 (human KCC2 isoform 2), purified full length
T1 sequence (Q9H2X9 1-1116 isoform Q9H2X9-2): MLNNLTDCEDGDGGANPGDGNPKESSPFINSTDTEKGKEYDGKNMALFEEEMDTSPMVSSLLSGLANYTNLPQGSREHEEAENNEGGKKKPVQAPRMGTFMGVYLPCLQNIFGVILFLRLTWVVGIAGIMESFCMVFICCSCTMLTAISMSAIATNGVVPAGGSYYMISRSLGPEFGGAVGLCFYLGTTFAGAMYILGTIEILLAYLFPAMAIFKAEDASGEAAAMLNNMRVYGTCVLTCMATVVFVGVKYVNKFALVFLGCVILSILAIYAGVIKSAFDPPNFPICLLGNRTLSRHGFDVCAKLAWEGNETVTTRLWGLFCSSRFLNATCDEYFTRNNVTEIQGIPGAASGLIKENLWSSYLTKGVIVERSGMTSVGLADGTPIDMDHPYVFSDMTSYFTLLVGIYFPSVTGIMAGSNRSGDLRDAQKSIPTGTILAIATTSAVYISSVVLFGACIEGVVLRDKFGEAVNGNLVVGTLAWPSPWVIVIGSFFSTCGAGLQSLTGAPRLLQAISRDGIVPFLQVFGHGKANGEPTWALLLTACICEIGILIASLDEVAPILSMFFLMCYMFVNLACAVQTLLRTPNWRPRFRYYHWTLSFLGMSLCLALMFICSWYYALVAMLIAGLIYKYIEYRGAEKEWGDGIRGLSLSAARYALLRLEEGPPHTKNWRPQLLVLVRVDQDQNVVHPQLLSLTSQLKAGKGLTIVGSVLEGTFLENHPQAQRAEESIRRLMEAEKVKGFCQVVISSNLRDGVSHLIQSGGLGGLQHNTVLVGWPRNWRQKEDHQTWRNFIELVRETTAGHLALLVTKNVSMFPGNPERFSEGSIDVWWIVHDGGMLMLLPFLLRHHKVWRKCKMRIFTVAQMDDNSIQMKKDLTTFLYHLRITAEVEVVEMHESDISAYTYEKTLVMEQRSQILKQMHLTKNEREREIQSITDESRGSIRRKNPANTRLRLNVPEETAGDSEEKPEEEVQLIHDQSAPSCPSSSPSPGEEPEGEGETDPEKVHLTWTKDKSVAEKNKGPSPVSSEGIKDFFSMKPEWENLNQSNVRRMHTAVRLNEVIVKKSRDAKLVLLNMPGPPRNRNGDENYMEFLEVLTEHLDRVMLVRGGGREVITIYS
Put plainly: SPR (Biacore S200), steady-state Langmuir fit on immobilized purified KCC2. The assay is classed as binding. An excerpt:
SPR (Biacore S200), steady-state Langmuir fit on immobilized purified KCC2 on KCC2 | Concentration-dependent binding of VU0463271 (blue diamonds) and non-specific control compound (red circles) on immobilized purified KCC2.

Assay [1] addresses Flag-Avi-His-KCC2 (human potassium chloride co-transporter KCC2, N-terminally tagged) (human) (UniProt Q9H2X9). Put plainly: cross-linking; purified KCC2 (5 µg) with glutaraldehyde 0-0.1% for 30 min at 4 °C, with or without DTT; SDS-PAGE and Western blot.
Assay [2] shares this target. Put plainly: native gel or EMSA; purified KCC2 in CALX-R3/DDM on 4-15% Clear Native PAGE (cathode buffer 7.5 mM imidazole, 0.05% deoxycholate, 0.01% DDM), 4 °C, Western blot with KCC2 antibody; with or without a freeze-thaw cycle.
Assay [3] shares this target. Put plainly: SEC; 50 µl purified KCC2 at 1 mg/ml on Superdex 200 Increase 5/150 GL, PBS, CALX-R3 1.5 mM, DDM 0.6 mM; fractions analysed by Clear Native PAGE and Western blot.
For assay [4] the target is unchanged. Put plainly: negative stain electron microscopy; gel filtration fractions of KCC2 monomers and dimers, 40 µg/ml in PBS, CALX-R3 1.5 mM, DDM 0.6 mM; 2% uranyl acetate; 2-D classes and 3-D models.
Assay [5] addresses T2, recombinant mouse KCC2 (mouse), Q91V14.
T2 chain: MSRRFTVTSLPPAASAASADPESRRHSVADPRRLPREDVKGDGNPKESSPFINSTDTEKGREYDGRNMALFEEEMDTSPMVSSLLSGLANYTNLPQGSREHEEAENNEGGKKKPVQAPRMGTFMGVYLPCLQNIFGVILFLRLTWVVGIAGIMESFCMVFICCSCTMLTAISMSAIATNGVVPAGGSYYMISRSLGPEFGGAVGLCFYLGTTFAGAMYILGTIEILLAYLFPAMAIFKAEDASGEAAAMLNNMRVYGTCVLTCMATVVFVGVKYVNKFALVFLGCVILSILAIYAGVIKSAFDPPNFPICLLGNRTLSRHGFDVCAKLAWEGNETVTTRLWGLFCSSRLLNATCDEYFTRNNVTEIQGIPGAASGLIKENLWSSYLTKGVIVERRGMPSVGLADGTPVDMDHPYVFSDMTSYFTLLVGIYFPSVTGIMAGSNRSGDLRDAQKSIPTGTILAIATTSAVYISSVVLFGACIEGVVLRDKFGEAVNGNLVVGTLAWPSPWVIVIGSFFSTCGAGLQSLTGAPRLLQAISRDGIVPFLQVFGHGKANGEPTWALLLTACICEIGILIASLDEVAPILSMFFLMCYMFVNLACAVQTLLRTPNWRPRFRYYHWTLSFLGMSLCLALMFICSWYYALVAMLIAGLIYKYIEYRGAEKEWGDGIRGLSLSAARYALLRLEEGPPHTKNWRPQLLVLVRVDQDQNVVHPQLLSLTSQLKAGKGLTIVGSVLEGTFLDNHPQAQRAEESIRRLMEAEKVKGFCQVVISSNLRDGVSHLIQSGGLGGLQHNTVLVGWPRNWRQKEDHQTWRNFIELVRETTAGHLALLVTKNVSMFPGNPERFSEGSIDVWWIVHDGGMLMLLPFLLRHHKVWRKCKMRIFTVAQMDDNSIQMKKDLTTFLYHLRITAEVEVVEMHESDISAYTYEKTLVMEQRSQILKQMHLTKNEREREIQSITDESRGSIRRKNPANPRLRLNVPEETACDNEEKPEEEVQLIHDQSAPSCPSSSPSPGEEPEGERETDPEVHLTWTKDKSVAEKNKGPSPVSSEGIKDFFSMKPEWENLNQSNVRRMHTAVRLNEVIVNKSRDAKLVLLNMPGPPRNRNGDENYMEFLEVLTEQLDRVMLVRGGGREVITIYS
Put plainly: native gel or EMSA; purified KCC2 in CALX-R3/DDM on 4-15% Clear Native PAGE (cathode buffer 7.5 mM imidazole, 0.05% deoxycholate, 0.01% DDM), 4 °C, Western blot with KCC2 antibody; with or without a freeze-thaw cycle. The note with it: remark: other sources report otherwise.

`Cc1csc(N(C(=O)CSc2ccc(-c3ccccc3)nn2)C2CC2)n1` [VU0463271] registered a Kd at KCC2 of 3 ± 2 µM.
In the case of “Flag-Avi-His-KCC2 (human potassium chloride co-transporter KCC2, N-terminally tagged) (from UniProt Q9H2X9-2 1-1116) (natural protein)”, the stoichiometry N in assay [1], in assay [2], in assay [3] and in assay [4] was 2 throughout.

B1: recombinant mouse KCC2, Q91V14 1-1138 (natural protein)
chain: MSRRFTVTSLPPAASAASADPESRRHSVADPRRLPREDVKGDGNPKESSPFINSTDTEKGREYDGRNMALFEEEMDTSPMVSSLLSGLANYTNLPQGSREHEEAENNEGGKKKPVQAPRMGTFMGVYLPCLQNIFGVILFLRLTWVVGIAGIMESFCMVFICCSCTMLTAISMSAIATNGVVPAGGSYYMISRSLGPEFGGAVGLCFYLGTTFAGAMYILGTIEILLAYLFPAMAIFKAEDASGEAAAMLNNMRVYGTCVLTCMATVVFVGVKYVNKFALVFLGCVILSILAIYAGVIKSAFDPPNFPICLLGNRTLSRHGFDVCAKLAWEGNETVTTRLWGLFCSSRLLNATCDEYFTRNNVTEIQGIPGAASGLIKENLWSSYLTKGVIVERRGMPSVGLADGTPVDMDHPYVFSDMTSYFTLLVGIYFPSVTGIMAGSNRSGDLRDAQKSIPTGTILAIATTSAVYISSVVLFGACIEGVVLRDKFGEAVNGNLVVGTLAWPSPWVIVIGSFFSTCGAGLQSLTGAPRLLQAISRDGIVPFLQVFGHGKANGEPTWALLLTACICEIGILIASLDEVAPILSMFFLMCYMFVNLACAVQTLLRTPNWRPRFRYYHWTLSFLGMSLCLALMFICSWYYALVAMLIAGLIYKYIEYRGAEKEWGDGIRGLSLSAARYALLRLEEGPPHTKNWRPQLLVLVRVDQDQNVVHPQLLSLTSQLKAGKGLTIVGSVLEGTFLDNHPQAQRAEESIRRLMEAEKVKGFCQVVISSNLRDGVSHLIQSGGLGGLQHNTVLVGWPRNWRQKEDHQTWRNFIELVRETTAGHLALLVTKNVSMFPGNPERFSEGSIDVWWIVHDGGMLMLLPFLLRHHKVWRKCKMRIFTVAQMDDNSIQMKKDLTTFLYHLRITAEVEVVEMHESDISAYTYEKTLVMEQRSQILKQMHLTKNEREREIQSITDESRGSIRRKNPANPRLRLNVPEETACDNEEKPEEEVQLIHDQSAPSCPSSSPSPGEEPEGERETDPEVHLTWTKDKSVAEKNKGPSPVSSEGIKDFFSMKPEWENLNQSNVRRMHTAVRLNEVIVNKSRDAKLVLLNMPGPPRNRNGDENYMEFLEVLTEQLDRVMLVRGGGREVITIYS
For B1, the stoichiometry N in assay [5] was 2.
